The source of these data is patent US12491324B2, “Droplet device with inertial filtering” (PNEUMA RESPIRATORY, INC., priority 2016, dated 2025).

“And” between values parts separate entries of the source, which are not always exact repeats. Equal entries are not always repeated.

What all share (assay type): physicochemical
A short description of series [1]: Insulin stability after aerosol generation, size exclusion chromatography (SEC). An excerpt: Size Exclusion Chromatography (SEC): Alternately, to determine the stability of active agent after droplet generation, the generated stream of droplets including the active agent may be collected and SEC-HPLIC may be employed to monitor for any changes in large molecule aggregation and protein fragment content. Soluble protein aggregates and protein fragment content may be calculated by comparing respective peak area under the SEC-HPLC curve of dispensed protein solutions with controls (solutions remaining in the device reservoir).
Drug solutions for testing include Enbrel, (ENBREL® single-use prefilled syringes in 25 mg (0.51 mL of a 50 mg/mL solution of etanercept), and insulin, (Humalog, 200 units/ml, 3 ml kwikpens)
Aerosol collection and SEC is performed in a similar fashion as for the Enbrel analysis and aerosol collection.
Fifty microliters of the collected aerosol spray is injected onto the SEC column for analysis, while 50 mcl of the Kwikpen insulin solution is injected onto the SEC column for control samples.
For orientation: SEC sorts molecules by how far they enter the pores of the column.

The nature of series [2]: Gel electrophoresis of active agent after droplet generation. The following applies: 'will show'. The source says:
Gel Electrophoresis: To determine the stability of active agent after droplet generation, the generated stream of droplets including the active agent is collected and the molecular weight of the active agent is verified using gel electrophoresis.

The nature of series [3]: Enbrel stability after aerosol generation, size exclusion chromatography (SEC). An excerpt: Size Exclusion Chromatography (SEC): Alternately, to determine the stability of active agent after droplet generation, the generated stream of droplets including the active agent may be collected and […] may be employed to monitor for any changes in large molecule aggregation and protein fragment content. Soluble protein aggregates and protein fragment content may be calculated by comparing respective peak area under the SEC-HPLC curve of dispensed protein solutions with controls (solutions remaining in the device reservoir). Drug solutions for testing include Enbrel, (ENBREL® single-use prefilled syringes in 25 mg (0.51 mL of a 50 mg/mL solution of etanercept), and insulin, (Humalog, 200 units/ml, 3 ml […] is performed with a YarraTM 3 μm SEC-2000 LC column 300×7.8 mm, SecurityGuard cartridge kit and SecurityGuard cartridges GFC-2000, 4×3 mm ID. Fifty microliters of Enbrel from the syringe (ENBREL® single-use prefilled syringes in 25 mg/0.51 mL of a 50 mg/mL solution of etanercept) is diluted (4:1) (4 parts, 200 mcl of the mobile phase buffer solution to 1 part, 50 mcl Enbrel from syringe). Fifty microliter of the diluted Enbrel is injected and separation was performed at a flow rate of 1.0 ml/min. The mobile phase buffer system included a PHOS. BUFF. SALINE. […] UV detection is performed at 280 nm. […] An ampule/cartridge is filled with either 0.20 ml of Enbrel® (50 mg/ml) diluted 4:1 (10 mg/ml) (4 parts (200 mcl) of PBS and 0.025% NaN3 and 1 part (50 mcl of Enbrel solution from the syringe). After 20 actuations and aerosolization, about 150 mcl of the aerosolized Enbrel solution is recovered and collected in the polypropylene tube located below the ejector mechanism. The control consists of the diluted Enbrel solution, 50 mcl of which is injected into the SEC column for analysis.

Series [4] in a line: Anderson Cascade Impactor testing of droplet delivery device with Albuterol sulfate (Example B). The following applies: Albuterol 0.5%, 28.3 lpm. The source says:
FIGS. 21A-21E provide a summary of the test results.

Setting [5] is: aerosolized samples S1, S2 (summary table).
[6] abbreviates: control, Enbrel diluted 4:1 (10 mg/ml), SEC UV 280 nm.

Regarding “Insulin: insulin, Humalog, 200 units/ml, 3 ml kwikpens”, in series [1] (setting [5]), the “Peak 3” value was 2.797 and 2.184. Further, the “Peak 3 Peak Area %” value in series [1] (control, Insulin from Kwikpen 200 U/ml, SEC) was 0%. For the same substance, the “ejected dose forming a fragment” value in series [1] (fragment eluting at ~25 minutes) came out at 2.5%.

As to etanercept [Enbrel], the “change in the electrophoretic mobility, and hence the molecular weight, post-aerosol vs control” value (“change in the electrophoretic mobility” for short) in series [2] is listed as “negligible change”. In series [3] (setting [5]), the “Peak 4” value was 0.357 and 0.352; the “Peak 5” value is 5.123 and 3.428. In series [3] (setting [6]), the “Peak 4 Peak Area %” value came to 0% and the “Peak 5 Peak Area %” value worked out at 0%. Further, the “dose leading to formation of molecular fragments” value in series [3] (fragments with elution times of 13 and 25 minutes) came to 4.6%.

bevacizumab: in series [2], the “change in the electrophoretic mobility” value is given as “negligible change”.

For Albuterol sulfate, in series [4] (FILTER stage, 10 actuations), the “Cum. % <” value is reported as 0.00% and the “Cum. % >” value was found to be 100.00%. Also, in series [4] (summary of deposition), the Coarse was found to be 22.7, the Fine worked out at 3.5, the Mouthpiece was 12.2 and the Respirable was determined as 69.3. Moreover, in series [4] (summary of deposition), the Throat is reported as 4.6.

Regarding adalimumab, the “change in the electrophoretic mobility” value in series [2] was “negligible change”.
